Reference: patent publication US20230140293A1

How the values were obtained:
Assay in all cases: cell-based or functional assay
[1] = target: HIV-1 Env 426c.TM4 (S278R.G471S.N460D.N463D), Env-pseudotyped virus produced in 293S GnTI- cells (Man5-enriched) (HIV-1 clade C strain 426c)
[2] = target: CH0505TF Env, Env-pseudotyped virus produced in 293S GnTI- cells (Man5-enriched) (HIV-1)
[3] = target: HIV-1 Env 426c.TM (N276D.N460D.N463D), Env-pseudotyped virus produced in 293T cells (HIV-1 clade C strain 426c)
[4] = target: HIV-1 Env 426c.DM (N460D.N463D), Env-pseudotyped virus produced in 293T cells (HIV-1 clade C strain 426c)
[5] = target: CH0505.w4.3 Env, Env-pseudotyped virus produced in 293T cells (HIV-1)
[6] = target: CH0505TF.gly3.276 Env, Env-pseudotyped virus produced in 293T cells (HIV-1)
[7] = target: HIV-1 426c.TM (N276D/N460D/N463D) Env on Env-pseudotyped virus produced in 293s/GnTI-/- cells (Man5-enrichment) (HIV-1)
[8] = target: CH0505TF.gly3.276 Env, Env-pseudotyped virus produced in 293S GnTI- cells (Man5-enriched) (HIV-1)
[9] = target: CH0505TF.gly3.197 Env, Env-pseudotyped virus produced in 293S GnTI- cells (Man5-enriched) (HIV-1)
[10] = target: HIV-1 Env 426c.TM4 (S278R.G471S.N460D.N463D), Env-pseudotyped virus produced in 293T cells (HIV-1 clade C strain 426c)
[11] = target: CH0505TF.G458Y Env, Env-pseudotyped virus produced in 293S GnTI- cells (Man5-enriched) (HIV-1)
[12] = target: HIV-1 clade C strain 426c Env on Env-pseudotyped virus produced in 293s/GnTI-/- cells (Man5-enrichment) (HIV-1)
[13] = target: HIV-1 Env 426c.SM (N276D), Env-pseudotyped virus produced in 293T cells (HIV-1 clade C strain 426c)
[14] = target: HIV-1 426c.SM (N276D) Env on Env-pseudotyped virus produced in 293s/GnTI-/- cells (Man5-enrichment) (HIV-1)
[15] = target: HIV-1 426c.TM (N276D/N460D/N463D) Env on Env-pseudotyped virus produced in 293T cells (HIV-1)
[16] = target: CH0505TF.gly3.461 Env, Env-pseudotyped virus produced in 293T cells (HIV-1)
[17] = target: CH0505TF.gly3.197 Env, Env-pseudotyped virus produced in 293T cells (HIV-1)
[18] = target: CH0505TF.gly4 Env, Env-pseudotyped virus produced in 293T cells (HIV-1)
[19] = target: HIV-1 426c.DM (N460D/N463D) Env on Env-pseudotyped virus produced in 293T cells (HIV-1)
[20] = target: HIV-1 426c.DM (N460D/N463D) Env on Env-pseudotyped virus produced in 293s/GnTI-/- cells (Man5-enrichment) (HIV-1)
[21] = target: HIV-1 Env 426c.DM (N460D.N463D), Env-pseudotyped virus produced in 293S GnTI- cells (Man5-enriched) (HIV-1 clade C strain 426c)
[22] = target: HIV-1 Env 426c.SM (N276D), Env-pseudotyped virus produced in 293S GnTI- cells (Man5-enriched) (HIV-1 clade C strain 426c)
[23] = target: CH0505TF.gly4 Env, Env-pseudotyped virus produced in 293S GnTI- cells (Man5-enriched) (HIV-1)
[24] = target: CH0505TF.gly3.461 Env, Env-pseudotyped virus produced in 293S GnTI- cells (Man5-enriched) (HIV-1)
[25] = target: HIV-1 Env 426c.TM (N276D.N460D.N463D), Env-pseudotyped virus produced in 293S GnTI- cells (Man5-enriched) (HIV-1 clade C strain 426c)
[26] = target: CH0505TF.G458Y Env, Env-pseudotyped virus produced in 293T cells (HIV-1)
[27] = target: HIV-1 Env 426c, Env-pseudotyped virus produced in 293S GnTI- cells (Man5-enriched) (HIV-1 clade C strain 426c)
[28] = target: HIV-1 426c.SM (N276D) Env on Env-pseudotyped virus produced in 293T cells (HIV-1)
[29] = target: HIV-1 Env 426c, Env-pseudotyped virus produced in 293T cells (HIV-1 clade C strain 426c)
[30] = target: CH0505TF Env, Env-pseudotyped virus produced in 293T cells (HIV-1)
[31] = target: HIV-1 clade C strain 426c Env on Env-pseudotyped virus produced in 293T cells (HIV-1)

Substance: CH01 (antibody)
- IC50 (µg/ml) in TZM-bl [1]: > 25 µg/mL
- IC50 (µg/ml) in TZM-bl [2]: 0.8 µg/mL
- IC50 (µg/ml) in TZM-bl [3]: > 25 µg/mL
- IC50 (µg/ml) in TZM-bl [4]: > 25 µg/mL
- IC50 (µg/ml) in TZM-bl [5]: > 20 µg/mL
- IC50 (µg/ml) in TZM-bl [6]: 5.7 µg/mL
- ID50/IC50 in TZM-bl [7]: > 25 µg/mL
- IC50 (µg/ml) in TZM-bl [8]: 1 µg/mL
- IC50 (µg/ml) in TZM-bl [9]: 0.22 µg/mL
- IC50 (µg/ml) in TZM-bl [10]: > 25 µg/mL
- IC50 (µg/ml) in TZM-bl [11]: 0.1 µg/mL
- ID50/IC50 in TZM-bl [12]: > 25 µg/mL
- IC50 (µg/ml) in TZM-bl [13]: > 25 µg/mL
- ID50/IC50 in TZM-bl [14]: > 25 µg/mL
- ID50/IC50 in TZM-bl [15]: > 25 µg/mL
- IC50 (µg/ml) in TZM-bl [16]: 7.7 µg/mL
- IC50 (µg/ml) in TZM-bl [17]: 3.8 µg/mL
- IC50 (µg/ml) in TZM-bl [18]: 8.8 µg/mL
- ID50/IC50 in TZM-bl [19]: > 25 µg/mL
- ID50/IC50 in TZM-bl [20]: > 25 µg/mL
- IC50 (µg/ml) in TZM-bl [21]: > 25 µg/mL
- IC50 (µg/ml) in TZM-bl [22]: > 25 µg/mL
- IC50 (µg/ml) in TZM-bl [23]: 0.1 µg/mL
- IC50 (µg/ml) in TZM-bl [24]: 0.09 µg/mL
- IC50 (µg/ml) in TZM-bl [25]: > 25 µg/mL
- IC50 (µg/ml) in TZM-bl [26]: 1 µg/mL
- IC50 (µg/ml) in TZM-bl [27]: > 25 µg/mL
- ID50/IC50 in TZM-bl [28]: > 25 µg/mL
- IC50 (µg/ml) in TZM-bl [29]: > 25 µg/mL
- IC50 (µg/ml) in TZM-bl [30]: 4.1 µg/mL
- ID50/IC50 in TZM-bl [31]: > 25 µg/mL

Substance: DH511.2_K3 (antibody)
- IC50 (µg/ml) in TZM-bl [1]: 0.56 µg/mL
- IC50 (µg/ml) in TZM-bl [2]: 0.95 µg/mL
- IC50 (µg/ml) in TZM-bl [3]: 1.06 µg/mL
- IC50 (µg/ml) in TZM-bl [4]: 1.5 µg/mL
- IC50 (µg/ml) in TZM-bl [5]: 0.02 µg/mL
- IC50 (µg/ml) in TZM-bl [6]: 2.9 µg/mL
- ID50/IC50 in TZM-bl [7]: 1.2 µg/mL
- IC50 (µg/ml) in TZM-bl [8]: 1.7 µg/mL
- IC50 (µg/ml) in TZM-bl [9]: 2.5 µg/mL
- IC50 (µg/ml) in TZM-bl [10]: 0.56 µg/mL
- IC50 (µg/ml) in TZM-bl [11]: 1.2 µg/mL
- ID50/IC50 in TZM-bl [12]: 0.85 µg/mL
- IC50 (µg/ml) in TZM-bl [13]: 0.77 µg/mL
- ID50/IC50 in TZM-bl [14]: 0.87 µg/mL
- ID50/IC50 in TZM-bl [15]: 1.06 µg/mL
- IC50 (µg/ml) in TZM-bl [16]: 2.8 µg/mL
- IC50 (µg/ml) in TZM-bl [17]: 3.1 µg/mL
- IC50 (µg/ml) in TZM-bl [18]: 2.1 µg/mL
- ID50/IC50 in TZM-bl [19]: 1.5 µg/mL
- ID50/IC50 in TZM-bl [20]: 0.75 µg/mL
- IC50 (µg/ml) in TZM-bl [21]: 0.75 µg/mL
- IC50 (µg/ml) in TZM-bl [22]: 0.87 µg/mL
- IC50 (µg/ml) in TZM-bl [23]: 1.1 µg/mL
- IC50 (µg/ml) in TZM-bl [24]: 1.6 µg/mL
- IC50 (µg/ml) in TZM-bl [25]: 1.2 µg/mL
- IC50 (µg/ml) in TZM-bl [26]: 0.6 µg/mL
- IC50 (µg/ml) in TZM-bl [27]: 0.85 µg/mL
- ID50/IC50 in TZM-bl [28]: 0.77 µg/mL
- IC50 (µg/ml) in TZM-bl [29]: 0.8 µg/mL
- IC50 (µg/ml) in TZM-bl [30]: 3.4 µg/mL
- ID50/IC50 in TZM-bl [31]: 0.8 µg/mL

Substance: F105 (antibody)
- IC50 (µg/ml) in TZM-bl [1]: > 25 µg/mL
- IC50 (µg/ml) in TZM-bl [2]: > 25 µg/mL
- IC50 (µg/ml) in TZM-bl [3]: > 25 µg/mL
- IC50 (µg/ml) in TZM-bl [4]: > 25 µg/mL
- IC50 (µg/ml) in TZM-bl [5]: 10.8 µg/mL
- IC50 (µg/ml) in TZM-bl [6]: > 25 µg/mL
- ID50/IC50 in TZM-bl [7]: > 25 µg/mL
- IC50 (µg/ml) in TZM-bl [8]: > 25 µg/mL
- IC50 (µg/ml) in TZM-bl [9]: > 25 µg/mL
- IC50 (µg/ml) in TZM-bl [10]: > 25 µg/mL
- IC50 (µg/ml) in TZM-bl [11]: > 25 µg/mL
- ID50/IC50 in TZM-bl [12]: > 25 µg/mL
- IC50 (µg/ml) in TZM-bl [13]: > 25 µg/mL
- ID50/IC50 in TZM-bl [14]: > 25 µg/mL
- ID50/IC50 in TZM-bl [15]: > 25 µg/mL
- IC50 (µg/ml) in TZM-bl [16]: > 25 µg/mL
- IC50 (µg/ml) in TZM-bl [17]: > 25 µg/mL
- IC50 (µg/ml) in TZM-bl [18]: > 25 µg/mL
- ID50/IC50 in TZM-bl [19]: > 25 µg/mL
- ID50/IC50 in TZM-bl [20]: > 25 µg/mL
- IC50 (µg/ml) in TZM-bl [21]: > 25 µg/mL
- IC50 (µg/ml) in TZM-bl [22]: > 25 µg/mL
- IC50 (µg/ml) in TZM-bl [23]: > 25 µg/mL
- IC50 (µg/ml) in TZM-bl [24]: > 25 µg/mL
- IC50 (µg/ml) in TZM-bl [25]: > 25 µg/mL
- IC50 (µg/ml) in TZM-bl [26]: > 25 µg/mL
- IC50 (µg/ml) in TZM-bl [27]: > 25 µg/mL
- ID50/IC50 in TZM-bl [28]: > 25 µg/mL
- IC50 (µg/ml) in TZM-bl [29]: > 25 µg/mL
- IC50 (µg/ml) in TZM-bl [30]: > 25 µg/mL
- ID50/IC50 in TZM-bl [31]: > 25 µg/mL
